Measurements: US20140242093A1, “METHODS AND COMPOSITIONS FOR MODULATING THE INNATE IMMUNE RESPONSE AND/OR MYOGENESIS IN A MAMMALIAN SUBJECT” (FRED HUTCHINSON CANCER RESEARCH CENTER, priority 2011, published 2014)

Tested on: Human myoblasts
Assay: Expression array of the innate immune response to lentiviral infection versus uninfected cells
Format: cell-based
Experimental: RNA was harvested from the lenti-viral infected cells and uninfected control cells at 24 hours after infection.

B1: DUX4-s: short splice form of DUX4 (SEQ ID NO:112), keeps the double-homeobox domains, lacks the C-terminal activation domain (protein, listed as Homo sapiens)
chain: MALPTPSDSTLPAEARGRGRRRRLVWTPSQSEALRACFERNPYPGIATRERLAQAIGIPEPRVQIWFQNERSRQLRQHRRESRPWPGRRGPPEGRRKRTAVTGSQTALLLRAFEKDRFPGIAAREELARETGLPESRIQIWFQNRRARHPGQGGRAPAQV
IFITM2 expression ratio vs NoLenti (.fc) (gene IFITM2 NM_006435.2, vs uninfected, 24 hours after infection): 1.29 log2 fold change | IFITM3 expression ratio vs GFP (.fc) (gene IFITM3 NM_021034.2, vs lenti-GFP, 24 hours after infection): −0.13 log2 fold change | IFITM3 expression ratio vs NoLenti (.fc) (gene IFITM3 NM_021034.2, vs uninfected, 24 hours after infection): 1.84 log2 fold change | IL1R1 expression ratio vs GFP (.fc) (gene IL1R1 NM_000877.2, vs lenti-GFP, 24 hours after infection): 0.30 log2 fold change | IL1R1 expression ratio vs NoLenti (.fc) (gene IL1R1 NM_000877.2, vs uninfected, 24 hours after infection): 1.61 log2 fold change | IL7R expression ratio vs GFP (.fc) (gene IL7R NM_002185.2, vs lenti-GFP, 24 hours after infection): 0.57 log2 fold change | IL7R expression ratio vs NoLenti (.fc) (gene IL7R NM_002185.2, vs uninfected, 24 hours after infection): 2.05 log2 fold change | IL8 expression ratio vs GFP (.fc) (gene IL8 NM_000584.2, vs lenti-GFP, 24 hours after infection): 1.19 log2 fold change | IL8 expression ratio vs NoLenti (.fc) (gene IL8 NM_000584.2, vs uninfected, 24 hours after infection): 4.69 log2 fold change | IL18BP expression ratio vs GFP (.fc) (gene IL18BP NM_173042.2, vs lenti-GFP, 24 hours after infection): 1.40 log2 fold change | IL18BP expression ratio vs NoLenti (.fc) (gene IL18BP NM_173042.2, vs uninfected, 24 hours after infection): 3.37 log2 fold change | IRF7 expression ratio vs GFP (.fc) (gene IRF7 NM_004029.2, vs lenti-GFP, 24 hours after infection): 1.14 log2 fold change | IRF7 expression ratio vs NoLenti (.fc) (gene IRF7 NM_004029.2, vs uninfected, 24 hours after infection): 3.99 log2 fold change | IRF9 expression ratio vs GFP (.fc) (gene IRF9 NM_006084.4, vs lenti-GFP, 24 hours after infection): 0.29 log2 fold change | IRF9 expression ratio vs NoLenti (.fc) (gene IRF9 NM_006084.4, vs uninfected, 24 hours after infection): 2.72 log2 fold change | MX1 expression ratio vs GFP (.fc) (gene MX1 NM_002462.2, vs lenti-GFP, 24 hours after infection): 0.26 log2 fold change | MX1 expression ratio vs NoLenti (.fc) (gene MX1 NM_002462.2, vs uninfected, 24 hours after infection): 7.49 log2 fold change | NFIL3 expression ratio vs GFP (.fc) (gene NFIL3 NM_005384.2, vs lenti-GFP, 24 hours after infection): 0.32 log2 fold change | NFIL3 expression ratio vs NoLenti (.fc) (gene NFIL3 NM_005384.2, vs uninfected, 24 hours after infection): 2.16 log2 fold change | NFKBIA expression ratio vs GFP (.fc) (gene NFKBIA NM_020529.1, vs lenti-GFP, 24 hours after infection): 0.28 log2 fold change | NFKBIA expression ratio vs NoLenti (.fc) (gene NFKBIA NM_020529.1, vs uninfected, 24 hours after infection): 2.46 log2 fold change | NFKBIZ expression ratio vs GFP (.fc) (gene NFKBIZ NM_001005474.1, vs lenti-GFP, 24 hours after infection): −0.26 log2 fold change | NFKBIZ expression ratio vs NoLenti (.fc) (gene NFKBIZ NM_001005474.1, vs uninfected, 24 hours after infection): 1.58 log2 fold change | STAT1 expression ratio vs GFP (.fc) (gene STAT1 NM_007315.2, vs lenti-GFP, 24 hours after infection): 0.82 log2 fold change | STAT1 expression ratio vs NoLenti (.fc) (gene STAT1 NM_007315.2, vs uninfected, 24 hours after infection): 4.79 log2 fold change | STAT2 expression ratio vs GFP (.fc) (gene STAT2 NM_005419.2, vs lenti-GFP, 24 hours after infection): 0.19 log2 fold change | STAT2 expression ratio vs NoLenti (.fc) (gene STAT2 NM_005419.2, vs uninfected, 24 hours after infection): 2.11 log2 fold change | TLR3 expression ratio vs GFP (.fc) (gene TLR3 NM_003265.2, vs lenti-GFP, 24 hours after infection): 1.67 log2 fold change | TLR3 expression ratio vs NoLenti (.fc) (gene TLR3 NM_003265.2, vs uninfected, 24 hours after infection): 2.56 log2 fold change | TNFAIP2 expression ratio vs GFP (.fc) (gene TNFAIP2 NM_006291.2, vs lenti-GFP, 24 hours after infection): 0.06 log2 fold change | TNFAIP2 expression ratio vs NoLenti (.fc) (gene TNFAIP2 NM_006291.2, vs uninfected, 24 hours after infection): 1.06 log2 fold change | TNFAIP3 expression ratio vs GFP (.fc) (gene TNFAIP3 NM_006290.2, vs lenti-GFP, 24 hours after infection): 0.28 log2 fold change | TNFAIP3 expression ratio vs NoLenti (.fc) (gene TNFAIP3 NM_006290.2, vs uninfected, 24 hours after infection): 2.50 log2 fold change | TNFAIP6 expression ratio vs GFP (.fc) (gene TNFAIP6 NM_007115.2, vs lenti-GFP, 24 hours after infection): 1.31 log2 fold change | TNFAIP6 expression ratio vs NoLenti (.fc) (gene TNFAIP6 NM_007115.2, vs uninfected, 24 hours after infection): 5.10 log2 fold change | TNFRSF6B expression ratio vs GFP (.fc) (gene TNFRSF6B NM_032945.2, vs lenti-GFP, 24 hours after infection): 0.01 log2 fold change | TNFRSF6B expression ratio vs NoLenti (.fc) (gene TNFRSF6B NM_032945.2, vs uninfected, 24 hours after infection): 1.32 log2 fold change | TNFRSF10A expression ratio vs GFP (.fc) (gene TNFRSF10A NM_003844.2, vs lenti-GFP, 24 hours after infection): 0.84 log2 fold change | TNFRSF10A expression ratio vs NoLenti (.fc) (gene TNFRSF10A NM_003844.2, vs uninfected, 24 hours after infection): 1.81 log2 fold change | TNFRSF14 expression ratio vs GFP (.fc) (gene TNFRSF14 NM_003820.2, vs lenti-GFP, 24 hours after infection): 0.57 log2 fold change | TNFRSF14 expression ratio vs NoLenti (.fc) (gene TNFRSF14 NM_003820.2, vs uninfected, 24 hours after infection): 1.78 log2 fold change | TNFSF10 expression ratio vs GFP (.fc) (gene TNFSF10 NM_003810.2, vs lenti-GFP, 24 hours after infection): 2.97 log2 fold change | TNFSF10 expression ratio vs NoLenti (.fc) (gene TNFSF10 NM_003810.2, vs uninfected, 24 hours after infection): 3.88 log2 fold change | TNFSF13B expression ratio vs GFP (.fc) (gene TNFSF13B NM_006573.3, vs lenti-GFP, 24 hours after infection): 2.19 log2 fold change | TNFSF13B expression ratio vs NoLenti (.fc) (gene TNFSF13B NM_006573.3, vs uninfected, 24 hours after infection): 3.78 log2 fold change | number of the 341 lenti-GFP induced genes induced 2-fold or more (vs uninfected cells, 24 hours): 315 genes
